Target: the molecule itself
Experiment: SEC; purified GATA4 on Superdex200 Increase 10/300 GL in 20 mM HEPES-NaOH pH 7.4, 100 mM NaCl; fractions blotted with anti-GATA4

B1: Full length GATA4 produced by E. coli (natural protein)
chain: not shown
notes: GATA4, full length; also called purified GATA4; recombinant GATA4; source: E. coli BL21 DE3, purified (Glutathione-Sepharose 4B, GST removed with HRV3C protease)
  stoichiometry N: ~8
